B1: FLAG-tagged SIP1 (other, mouse, UniProt Q9R0G7 1-1214, looked up)
chain: MKQPIMADGPRCKRRKQANPRRKNVVNYDNVVDAGSETDEEDKLHIAEDDSLANPLDQDTSPASMPNHESSPHMSQGLLPREEEEEELRESVVEHSWHSGEILQASVAGPEEMKEDYDAMGPEATIQTTINNGTVKNANCTSDFEEYFAKRKLEERDGHAVSIEEYLQRSDTAIIYPEAPEELSRLGTPEANGQEENDLPPGTPDAFAQLLTCPYCDRGYKRLTSLKEHIKYRHEKNEENFSCPLCSYTFAYRTQLERHMVTHKPGTDQHQMLTQGAGNRKFKCTECGKAFKYKHHLKEHLRIHSGEKPYECPNCKKRFSHSGSYSSHISSKKCIGLISVNGRMRNNIKTGSSPNSVSSSPTNSAITQLRNKLENGKPLSMSEQTGLLKIKTEPLDFNDYKVLMATHGFSGSSPFMNGGLGATSPLGVHPSAQSPMQHLGVGMEAPLLGFPTMNSNLSEVQKVLQIVDNTVSRQKMDCKTEDISKLKGYHMKDPCSQPEEQGVTSPNIPPVGLPVVSHNGATKSIIDYTLEKVNEAKACLQSLTTDSRRQISNIKKEKLRTLIDLVTDDKMIENHSISTPFSCQFCKESFPGPIPLHQHERYLCKMNEEIKAVLQPHENIVPNKAGVFVDNKALLLSSVLSEKGLTSPINPYKDHMSVLKAYYAMNMEPNSDELLKISIAVGLPQEFVKEWFEQRKVYQYSNSRSPSLERTSKPLAPNSNPTTKDSLLPRSPVKPMDSITSPSIAELHNSVTSCDPPLRLTKSSHFTNIKAVDKLDHSRSNTPSPLNLSSTSSKNSHSSSYTPNSFSSEELQAEPLDLSLPKQMREPKGIIATKNKTKATSINLDHNSVSSSSENSDEPLNLTFIKKEFSNSNNLDNKSNNPVFGMNPFSAKPLYTPLPPQSAFPPATFMPPVQTSIPGLRPYPGLDQMSFLPHMAYTYPTGAATFADMQQRRKYQRKQGFQGDLLDGAQDYMSGLDDMTDSDSCLSRKKIKKTESGMYACDLCDKTFQKSSSLLRHKYEHTGKRPHQCQICKKAFKHKHHLIEHSRLHSGEKPYQCDKCGKRFSHSGSYSQHMNHRYSYCKREAEEREAAEREAREKGHLEPTELLMNRAYLQSITPQGYSDSEERESMPRDGESEKEHEKEGEEGYGKLRRRDGDEEEEEEEEESENKSMDTDPETIRDEEETGDHSMDDSSEDGKMETKSDHEEDNMEDGM
notes: range 1-1214; Produced in COS1 cells from pCDNA3; tested in total cell extract; also called FLAG-tagged SIP1FS; pCDNA3-SIP1 (Flag-tagged); not shown: FLAG tag at the N-terminus
B2: Myc-tagged full size SIP1 (SIP1FS) (other, mouse, UniProt Q9R0G7 1-1214, looked up)
chain: MKQPIMADGPRCKRRKQANPRRKNVVNYDNVVDAGSETDEEDKLHIAEDDSLANPLDQDTSPASMPNHESSPHMSQGLLPREEEEEELRESVVEHSWHSGEILQASVAGPEEMKEDYDAMGPEATIQTTINNGTVKNANCTSDFEEYFAKRKLEERDGHAVSIEEYLQRSDTAIIYPEAPEELSRLGTPEANGQEENDLPPGTPDAFAQLLTCPYCDRGYKRLTSLKEHIKYRHEKNEENFSCPLCSYTFAYRTQLERHMVTHKPGTDQHQMLTQGAGNRKFKCTECGKAFKYKHHLKEHLRIHSGEKPYECPNCKKRFSHSGSYSSHISSKKCIGLISVNGRMRNNIKTGSSPNSVSSSPTNSAITQLRNKLENGKPLSMSEQTGLLKIKTEPLDFNDYKVLMATHGFSGSSPFMNGGLGATSPLGVHPSAQSPMQHLGVGMEAPLLGFPTMNSNLSEVQKVLQIVDNTVSRQKMDCKTEDISKLKGYHMKDPCSQPEEQGVTSPNIPPVGLPVVSHNGATKSIIDYTLEKVNEAKACLQSLTTDSRRQISNIKKEKLRTLIDLVTDDKMIENHSISTPFSCQFCKESFPGPIPLHQHERYLCKMNEEIKAVLQPHENIVPNKAGVFVDNKALLLSSVLSEKGLTSPINPYKDHMSVLKAYYAMNMEPNSDELLKISIAVGLPQEFVKEWFEQRKVYQYSNSRSPSLERTSKPLAPNSNPTTKDSLLPRSPVKPMDSITSPSIAELHNSVTSCDPPLRLTKSSHFTNIKAVDKLDHSRSNTPSPLNLSSTSSKNSHSSSYTPNSFSSEELQAEPLDLSLPKQMREPKGIIATKNKTKATSINLDHNSVSSSSENSDEPLNLTFIKKEFSNSNNLDNKSNNPVFGMNPFSAKPLYTPLPPQSAFPPATFMPPVQTSIPGLRPYPGLDQMSFLPHMAYTYPTGAATFADMQQRRKYQRKQGFQGDLLDGAQDYMSGLDDMTDSDSCLSRKKIKKTESGMYACDLCDKTFQKSSSLLRHKYEHTGKRPHQCQICKKAFKHKHHLIEHSRLHSGEKPYQCDKCGKRFSHSGSYSQHMNHRYSYCKREAEEREAAEREAREKGHLEPTELLMNRAYLQSITPQGYSDSEERESMPRDGESEKEHEKEGEEGYGKLRRRDGDEEEEEEEEESENKSMDTDPETIRDEEETGDHSMDDSSEDGKMETKSDHEEDNMEDGM
notes: range 1-1214; Produced in COS1 cells from pCS3; tested in total cell extract; also called Myc-tagged SIP1; WT SIP1; not shown: (Myc)6 tag of pCS3 at the N-terminus

How the values were obtained:
[1] = system: SIP1 full size in cells (mouse); assay: cell_activity; details: luciferase reporter; derepressed by E-box mutations
[2] = target: B2; assay: EMSA double supershift with anti-Myc and anti-FLAG antibodies, Xbra-WT probe
Experimental: For supershift experiments, the extracts were incubated with anti-Myc (Santa Cruz) or anti-FLAG (Kodak) antibodies. For competition, an excess of unlabeled double-stranded oligonucleotides was added together with the labeled probe. The binding reaction was loaded onto a 4% polyacrylamide gel (acrylamide/bis-acrylamide, 19:1) prepared in 0.5XTBE buffer. Following electrophoresis, gels were dried, and exposed to X-Ray film. All experiments were repeated at least three times.
To address this experimentally, we used a combination of differently tagged SIP1 in supershift experiments in EMSAs. […] The SIP1 complex generated with Myc-tagged SIP1 has a slightly slower migration than the FLAG-tagged complex (the Myc-tag is longer than the FLAG-tag). […] Using an anti-FLAG antibody, only the lower part of the complex corresponding to FLAG-tagged SIP1 is super-shifted, whereas about 50% of the radioactivity remains within the Myc-tagged SIP1 complex. […] Conversely, incubating the extract with an anti-Myc antibody super-shifted only the […] part of the complex corresponding to Myc-tagged SIP1 whereas 50% of the radioactivity is retained within the FLAG-tagged SIP1 complex. […] However, we detected no other super-shifted band corresponding to a potential double super-shift, viz. super-shifted with both anti-Myc- and anti-FLAG-antibodies.

[3] = target: B1; assay: immunoprecipitation with anti-Myc antibody, detection with anti-FLAG antibody
Experimental: Transfected cells were washed with PBS-O (137 mM NaCl, 2.7 mM KCl, 6.5 mM Na₂HPO₄, 1.5 mM KH₂PO₄), collected in detachment buffer (10 mM Tris pH7.5, 1 mM EDTA, 10% glycerol, with protease inhibitors (Protease inhibitor Cocktail tablets, Boehringer Mannheim)) and pelleted by low spin centrifugation. The cells were then solubilized in 10 mM Tris, pH 7.4, 125 mM NaCl, 1% Triton X-100. For direct electrophoretic analysis, gel sample buffer was added to the cell lysates and the samples were boiled. For other experiments, lysates were first subjected to immunoprecipitation with either anti-Myc or anti-FLAG antibodies. Antibodies were added to aliquots of the cell lysates, which were incubated overnight at 4° C. The antibodies and the bound protein(s) of the cell lysate were coupled as a complex to protein A-Sepharose for 2 hours at 4° C. The immunoprecipitates were washed 4 times in NET buffer (50 mM Tris pH 8.0, 150 mM NaCl, 0.1% NP40, 1 mM EDTA, 0.25% gelatin), resolved by SDS-polyacrylamide (7.5%) gel electrophoresis, and electrophoretically transferred to nitrocellulose membranes. […] Immunoreactive bands were detected with an enhanced chemiluminescence reagent (NEN). […]

## E-cadherin promoter reporter
[1]
  activity (% decrease of promoter activity): 80

## B1
[2]
  binding result: no binding

## B2
[3]
  binding result: no binding

Source: US20030044809A1, “Nucleic acid binding of multi-zinc finger transcription factors” (published 2003)
